Read-outs that look alike come from different tables or passages of the source.
Columns and labels:
Human CD40 [1] = molecular target: T1, Human CD40 (human, UniProt P25942 21-277); experiment: cell-based or functional assay
Human CD40 [2] = molecular target: T1, Human CD40; experiment: cell-based or functional assay; remark: listed apart in the source
Human CD40 [3] = molecular target: T1, Human CD40; experiment: Alexa 647 labeled Ab102 binding to CD40 on the surface of human B cells
Description: (§1) The cross-reactivity of Ab102 with CD40 from various species was tested. […] Binding of Ab102 to mouse, rat, and rabbit CD40 could not be detected at concentrations up to 30 μg/mL (200 nM).

Human CD40 [4] = molecular target: T1, Human CD40; experiment: cell-based or functional assay; remark: listed apart in the source
mouse CD40 = molecular target: T2, mouse CD40 (mouse, UniProt P27512 20-289); experiment: Alexa 647 labeled Ab102 on the surface of B cells
T2 construct: whole, on cells
T2 sequence (looked up): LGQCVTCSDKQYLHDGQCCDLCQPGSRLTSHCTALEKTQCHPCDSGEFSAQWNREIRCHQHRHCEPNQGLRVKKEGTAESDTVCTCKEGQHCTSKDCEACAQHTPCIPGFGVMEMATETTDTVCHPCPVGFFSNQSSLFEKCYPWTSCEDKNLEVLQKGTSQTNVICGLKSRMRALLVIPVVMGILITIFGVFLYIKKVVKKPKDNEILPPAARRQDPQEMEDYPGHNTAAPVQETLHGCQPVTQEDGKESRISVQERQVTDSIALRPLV

rat CD40 = molecular target: T3, rat CD40 (rat, UniProt A6JXD6 20-289); experiment: Alexa 647 labeled Ab102 on the surface of B cells
T3 sequence: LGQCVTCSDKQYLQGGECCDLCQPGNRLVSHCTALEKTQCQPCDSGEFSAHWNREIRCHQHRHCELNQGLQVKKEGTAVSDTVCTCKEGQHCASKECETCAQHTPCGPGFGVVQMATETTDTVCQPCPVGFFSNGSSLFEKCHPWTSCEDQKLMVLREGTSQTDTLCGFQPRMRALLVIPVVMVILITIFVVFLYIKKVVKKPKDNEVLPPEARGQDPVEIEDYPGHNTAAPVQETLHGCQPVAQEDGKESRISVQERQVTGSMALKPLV

cyno CD40 [5] = molecular target: T4, cyno CD40 (cynomolgus monkey, UniProt G7PG38 21-278); experiment: Alexa 647 labeled Ab102 binding to CD40 on the surface of cynomolgus monkey B cells
T4 construct: whole, on cells; also called cyCD40; cynomolgus monkey CD40
Description: as §1

Human CD40 [6] = molecular target: T1, Human CD40; experiment: cell-based or functional assay; remark: listed apart in the source
Human CD40 [7] = molecular target: T1, Human CD40; experiment: cell-based or functional assay; remark: listed apart in the source
Human CD40 [8] = molecular target: T1, Human CD40; experiment: cell-based or functional assay; remark: listed apart in the source
Human CD40 [9] = molecular target: T1, Human CD40; experiment: FACS blocking of sCD40L binding to CD40 expressing HEK cells
Description: FACS analysis was also used to determine whether the three chimeric antibodies could inhibit binding of soluble CD40 ligand (sCD40L) to CD40. Using CD40 expressing HEK cells, IC50 values were measured. As described in Table 10, each of the chimeric antibodies was able to block CD40 binding to its ligand.

cyno CD40 [10] = molecular target: T4, cyno CD40; experiment: FACS binding on HEK cells expressing cyCD40
cyno CD40 [11] = molecular target: T4, cyno CD40; experiment: FACS on HEK cells expressing cyno CD40

T1 sequence (P25942 21-277 limits assumed): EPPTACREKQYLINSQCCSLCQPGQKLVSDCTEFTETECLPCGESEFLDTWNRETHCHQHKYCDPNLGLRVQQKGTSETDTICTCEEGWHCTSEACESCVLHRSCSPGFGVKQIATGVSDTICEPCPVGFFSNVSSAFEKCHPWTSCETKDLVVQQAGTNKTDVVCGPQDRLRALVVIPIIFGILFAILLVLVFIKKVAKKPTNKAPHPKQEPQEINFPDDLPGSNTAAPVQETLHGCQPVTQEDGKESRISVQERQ

## MEGACD40L (Enzo) (ligand)
Human CD40 [1]
  production of TNF from monocytes, EC50 (agonist assay format): 1.9 nM

B1: huAb1v4 (antibody, V domains shown)
VH: EVQLVESGGGLVKPGGSLRLSCAASGFTFSDYGMNWVRQAPGKGLEWIAYISSGRSNIYYADTVKGRFTISRDNAKNSLYLQMNSLRAEDTAVYYCARSWGYFDVWGQGTTVTVSS
VL: DIVMTQSPDSLAVSLGERATINCKSSQSLLNPGNQKNYLTWFQQKPGQPPKLLIYWASTRESGVPDRFSGSGSGTDFTLTISSLQAEDVAVYYCQNDYTYPLTFGQGTKLEIK
Human CD40 [2]
  Agonist: huCD40 reporter assay IC50: 49 nM

B2: Ab102 (antibody, human IgG1, kappa, L234A L235A, V domains shown)
VH: EVQLVESGGGLVKPGGSLRLSCAASGFTFSDYGMNWVRQAPGKGLEWIAYISSGRGNIYYADTVKGRFTISRDNAKNSLYLQMNSLRAEDTAVYYCARSWGYFDVWGQGTTVTVSS
VL: DIVMTQSPDSLAVSLGERATINCKSSQSLLNRGNQKNYLTWFQQKPGQPPKLLIYWASTRESGVPDRFSGSGSGTDFTLTISSLQAEDVAVYYCQNDYTYPLTFGQGTKLEIKR
notes: Humanized IgG1/kappa with L234A, L235A, T250Q, M428L (LALA-QL); also called VL huAbv1/VH huAb1v1CDR2v7/hCg1/k-LALA-QL; mAb CD40 Ab102 [hu IgG1/k]; LALA QL
Human CD40 [3]
  EC50: 0.89 nM
Human CD40 [4]
  Monocyte Activation Assay, Antagonist IC50 (nM), Experiment 1: 0.06 nM
  Monocyte Activation Assay, Antagonist IC50 (nM), Experiment 2: 0.23 nM
  Monocyte Activation Assay, Antagonist IC50 (nM), Experiment 3: 0.11 nM
Mouse CD40
  binding result: no binding (tested: 30 µg/mL (200 nM))
Rat CD40
  binding result: no binding (tested: 30 µg/mL (200 nM))
Cyno CD40 [5]
  EC50: 1.4 nM

B3: huAb1v1CDR2v7 (antibody, V domains shown)
VH: EVQLVESGGGLVKPGGSLRLSCAASGFTFSDYGMNWVRQAPGKGLEWIAYISSGRGNIYYADTVKGRFTISRDNAKNSLYLQMNSLRAEDTAVYYCARSWGYFDVWGQGTTVTVSS
VL: DIVMTQSPDSLAVSLGERATINCKSSQSLLNRGNQKNYLTWFQQKPGQPPKLLIYWASTRESGVPDRFSGSGSGTDFTLTISSLQAEDVAVYYCQNDYTYPLTFGQGTKLEIK
Human CD40 [6]
  Antagonist: Jurkat/Reporter assay (IC50 nM): 2.69 nM
Human CD40 [7]
  antagonistic activity in comparison to antibody huAb1v1: 20 fold

B4: chimeric Ab1 (chAb1) (antibody, V domains shown)
VH: EVQLVESGGGLVKPGGSLKVSCAASGFTFSDYGMNWVRQAPEKGLEWIAYISSGRSNIYYADTVKGRFTISRDNAKNTLFLQMTSLRSEDTAMYYCARSWGYFDVWGTGTTVTVSS
VL: DIVMTQSPSSLTVTAGEMVTMSCKSSQSLLNSGNQKNYLTWFQQKPGQPPKLLIYWASTRESGVPDRFAGSGSGTDFTLTISSVQAEDLAVYYCQNDYTYPLTFGAGTKLEIK
notes: Murine Ab1 variable regions on human constant regions; also called chimeric antibody (Antibody 1 (Ab1))
Human CD40 [8]
  Antagonist: His-CD40L reporter assay IC50: 0.4 nM
  Antagonist: Jurkat/Reporter assay IC50: 51 nM
Human CD40 [9]
  IC50: 2.3 nM

B5: chimeric Ab2 (chAb2) (antibody, V domains shown)
VH: EVQLVESGGGLVKPGGSLKVSCAASGFTFSDYGMNWVRQSPEKGLEWIAYISSGRGNIYYADTVKGRFTISRDNAKNTLFLQMTSLRSEDTAMYYCARSWGYFDVWGTGTTVTVSS
VL: DIVMTQSPSSLTVTAGEKVTMSCKSSQSLLNSGNQKNYLTWFQQKPGQPPKLLIYWASTRESGVPDRFTGSGSGTDFTLTISSVQAEDLAVYYCQNDYTYPLTFGAGTKLELK
Human CD40 [8]
  Antagonist: His-CD40L reporter assay IC50: 0.3 nM
  Antagonist: Jurkat/Reporter assay IC50: 3.4 nM
Cyno CD40 [10]
  binding result: binds
Human CD40 [9]
  IC50: 1.4 nM

B6: huAb1v5 (antibody, V domains shown)
VH: EVQLVESGGGLVKPGGSLRLSCAASGFTFSDYGMNWVRQAPGKGLEWIAYISSGRSNIYYADTVKGRFTISRDNAKNSLYLQMNSLRAEDTAVYYCARSWGYFDVWGQGTTVTVSS
VL: DIVMTQSPDSLAVSLGERATINCKSSQSLLNTGNQKNYLTWFQQKPGQPPKLLIYWASTRESGVPDRFSGSGSGTDFTLTISSLQAEDVAVYYCQNDYTYPLTFGQGTKLEIK
Human CD40 [2]
  Antagonist: Jurkat/Reporter assay IC50: > 100 nM

B7: chimeric Ab3 (chAb3) (antibody, V domains shown)
VH: QVQLQQSGAELARPGASVKMSCKAFGYTFTSYTMHWVKQRPGQGLEWIGYINPSSDYPNYNQKFKDKATLTADKSSSTAYMQLSSLTSEDSAVYYCARWGYSFDYWGQGTTLTVSS
VL: DIVMTQAAPSVSVIPGESVSISCRSSKSLLHSNGNTYLYWFLQRPGQSPQYLIYRMSTLASGVPDRFSGSGSGTAFTLRISRVEAEDVGVYYCMQHLEYPLTFGAGTKLELK
notes: also called chimeric Antibody 3
Human CD40 [8]
  Antagonist: His-CD40L reporter assay IC50: 0.2 nM
  Antagonist: Jurkat/Reporter assay IC50: 0.9 nM
Cyno CD40 [11]
  binding result: no binding
Human CD40 [9]
  IC50: 1.4 nM
